From patent US20210230279A1 come the findings set out here.

Assay [1] deals with recombinant human integrin αvβ6 (human) (UniProt P18564).
Assay [2] has the same target. Nature of the assay: competition of 3G9 with RGD3 for binding to αvβ6 (sheet title); y axis 'Relative Inhibition of avb6 binding to TGFb3 peptide'; signal falls from about 1.03 to about 0.04 at log 4.
For assay [3] the target is unchanged. Nature of the assay: blocking of adhesion (A590) of Cho cells expressing GARP/LTGFB1 to immobilized αvβ6; antibody concentration varied; unit taken from the axis log[Agonist], (ug/ml).

recombinant human integrin αvβ6 (human), sequence (chain, as listed by the source limits assumed, chain 1 of 2): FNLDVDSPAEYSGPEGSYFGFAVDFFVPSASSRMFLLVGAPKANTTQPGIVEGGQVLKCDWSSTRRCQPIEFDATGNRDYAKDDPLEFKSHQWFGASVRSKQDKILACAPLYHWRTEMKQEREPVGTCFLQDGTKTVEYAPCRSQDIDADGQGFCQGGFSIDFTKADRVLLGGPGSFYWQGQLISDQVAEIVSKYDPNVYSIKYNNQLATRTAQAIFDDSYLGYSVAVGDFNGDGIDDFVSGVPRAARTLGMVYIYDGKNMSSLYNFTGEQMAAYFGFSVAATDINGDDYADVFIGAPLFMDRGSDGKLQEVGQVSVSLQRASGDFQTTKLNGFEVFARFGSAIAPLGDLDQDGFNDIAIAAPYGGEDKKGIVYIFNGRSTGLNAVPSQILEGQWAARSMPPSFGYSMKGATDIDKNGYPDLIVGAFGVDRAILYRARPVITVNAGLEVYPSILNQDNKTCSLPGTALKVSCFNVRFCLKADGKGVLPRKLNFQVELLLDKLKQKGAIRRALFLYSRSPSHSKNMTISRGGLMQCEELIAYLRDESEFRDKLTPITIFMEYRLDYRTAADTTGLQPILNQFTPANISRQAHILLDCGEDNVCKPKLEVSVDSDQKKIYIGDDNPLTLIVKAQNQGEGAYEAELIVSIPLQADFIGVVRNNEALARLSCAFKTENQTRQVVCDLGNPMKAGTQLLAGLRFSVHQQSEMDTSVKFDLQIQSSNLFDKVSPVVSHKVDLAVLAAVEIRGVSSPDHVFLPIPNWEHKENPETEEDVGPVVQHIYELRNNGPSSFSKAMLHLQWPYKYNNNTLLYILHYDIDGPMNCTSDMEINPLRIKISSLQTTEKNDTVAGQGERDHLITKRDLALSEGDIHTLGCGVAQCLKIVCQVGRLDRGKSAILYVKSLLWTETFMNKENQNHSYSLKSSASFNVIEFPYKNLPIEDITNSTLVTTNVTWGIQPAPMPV
recombinant human integrin αvβ6 (human), sequence (P18564 22-707 limits assumed, chain 2 of 2): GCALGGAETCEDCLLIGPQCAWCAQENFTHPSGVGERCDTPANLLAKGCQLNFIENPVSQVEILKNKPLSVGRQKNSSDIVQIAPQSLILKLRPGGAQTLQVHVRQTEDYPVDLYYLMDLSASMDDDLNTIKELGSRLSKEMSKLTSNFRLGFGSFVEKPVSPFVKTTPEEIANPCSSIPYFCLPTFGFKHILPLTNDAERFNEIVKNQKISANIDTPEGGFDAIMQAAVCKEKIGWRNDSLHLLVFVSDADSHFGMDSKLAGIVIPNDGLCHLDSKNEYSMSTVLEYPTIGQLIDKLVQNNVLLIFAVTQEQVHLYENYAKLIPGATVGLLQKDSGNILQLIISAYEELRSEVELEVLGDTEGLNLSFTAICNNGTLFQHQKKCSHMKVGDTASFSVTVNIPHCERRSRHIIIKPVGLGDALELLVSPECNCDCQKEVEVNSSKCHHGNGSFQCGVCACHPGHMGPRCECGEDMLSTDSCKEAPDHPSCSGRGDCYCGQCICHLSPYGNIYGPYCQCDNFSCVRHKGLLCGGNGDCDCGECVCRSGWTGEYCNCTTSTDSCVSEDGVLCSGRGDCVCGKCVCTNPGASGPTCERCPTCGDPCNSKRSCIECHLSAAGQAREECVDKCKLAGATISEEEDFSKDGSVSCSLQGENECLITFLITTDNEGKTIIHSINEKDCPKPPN

In the case of Mab 3G9 (anti-β6) (antibody), the EC50 of inhibition of TGF-β activation (TMLC luciferase reporter) of GARP/LTGFB1 Cho cells on immobilized αvβ6; unit from the axis in assay [1] amounted to 0.922 µg/mL. For the same substance, the LogEC50 (Log10 (ng/ml)) in assay [2] was determined as 2.93. Moreover, the EC50 in assay [3] came to 0.834 µg/mL.

Usually EC50 stands for the midpoint of the concentration-response curve.
